{"source": "paper PMC7261414", "about": "“A complex comprising C15ORF41 and Codanin-1: the products of two genes mutated in congenital dyserythropoietic anaemia type I (CDA-I)” (Biochemical Journal, 2020)", "target": "T1, Codanin-1-C (fragment of Codanin-1, amino acids P800-S1227) (human, UniProt Q8IWY9 800-1227)", "T1 construct": "Codanin-1, amino acids P800-S1227; Plasmid pET28a 6His z-basic TEV CDAN1^P800-S1227; the text speaks only of the hexahistidine tag being cleaved with TEV; that z-basic goes with it follows from the order in the plasmid's name; also called CDAN1^P800-S1227; source: E. coli, purified (Ni2+-NTA agarose, tag cleaved with His-TEV protease); not shown: His6, N-terminal, cleaved; z-basic, N-terminal, …", "T1 sequence (looked up)": "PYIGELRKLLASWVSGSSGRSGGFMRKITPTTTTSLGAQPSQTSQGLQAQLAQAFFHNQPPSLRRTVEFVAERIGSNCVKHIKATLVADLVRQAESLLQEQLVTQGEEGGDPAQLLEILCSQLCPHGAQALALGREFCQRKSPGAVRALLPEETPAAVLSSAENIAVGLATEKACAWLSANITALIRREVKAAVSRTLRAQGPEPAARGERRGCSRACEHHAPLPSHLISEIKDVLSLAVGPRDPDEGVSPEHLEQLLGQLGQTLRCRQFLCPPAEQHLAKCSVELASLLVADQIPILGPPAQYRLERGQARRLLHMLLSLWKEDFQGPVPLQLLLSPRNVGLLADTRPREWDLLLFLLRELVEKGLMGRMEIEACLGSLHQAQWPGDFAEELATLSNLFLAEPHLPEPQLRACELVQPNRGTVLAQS", "test": "pull-down + SEC; purified His6-C15ORF41 re-bound to Ni2+-NTA agarose, excess of purified Codanin-1-C passed over, eluted with 400 mM imidazole, Superdex 200 16/60 in 50 mM Tris pH 7.5, 500 mM NaCl, 5% glycerol, 0.5 mM TCEP", "details": "both partners purified"}
{"binder": "His6-C15ORF41 bearing the solubilising mutations V18M, C223S and W237R (natural protein, human, UniProt Q9Y2V0 1-281, looked up, C15ORF41 (CDIN1) with the extra mutations V18M, C223S and W237R; Plasmid pNIC28 Bsa4 6His Tev C15ORF41^(V18M C223S W237R), a gift from J. Newman (SGC Oxford); preparations held bacterial ArnA as a contaminant; also called C15ORF41^(V18M C223S W237R); source: E. coli, purified (Ni2+-NTA agarose, dialysis); not shown: His6, N-terminal, kept) MILTKAQYDEIAQCLVSMPPTRQSLRKLKQRFPSQSQATLLSIFSQEYQKHIKRTHAKHHTSEAIESYYQRYLNGVVKNGAAPVLLDLANEVDYAPSLMARLILERFLQEHEETPPSKSIINSMLRDPSQIPDGVLANQVYQCIVNDCCYGPLVDCIKHAIGHEHEVLLRDLLLEKNLSFLDEDQLRAKGYDKTPDFILQVPVAVEGHIIHWIESKASFGDESSHHAYLHDQFWSYRNRFGPGLVIYWYGFIQELDCNRERGILLKACFPTNIVTLCHSIA", "values": [{"measurement": "binding result", "value": "binds"}]}
